Drawing on patent US20240376205A1 (Hoffmann-La Roche, published 2024), this text covers Kd, koff and kon for three molecules.

Test [1] has as its target T1, OneArmed-huPD-L1_ECD_Fc_LALAPG (P1AF6937) (human, UniProt Q9NZQ7 18-238).
T1 construct: range 18-238; also called huPD-L1-Fc; huPD-L1(ECD)-huFc
Briefly: SPR, Fab fragment, as in Example 2 a). For orientation: In SPR one partner is held on a chip, and binding of the other changes the refractive index at the surface.

The target of test [2] is T2, OneArmed-cyPD-L1_ECD_Fc_LALAPG_avi_his (P1AF6938) (cynomolgus).
T2 construct: also called cynomolgus PD-L1-Fc; cynoPD-L1 (ECD)-huFc
Briefly: SPR, Fab fragment, as in Example 2 a).

Test [3] addresses T1, OneArmed-huPD-L1_ECD_Fc_LALAPG …. Briefly: SPR, Dutaflip Fab fragment without IFN-α2 fusion, analyte P1AF6937.

B1: anti-huPD-L1 M14 Fab (P1AI3438) (Fab, V domains shown)
VH: MTQLVESGGGLVQPGGSLRLSCAADHTTEYNAMSWVRQAPGKGLEWVSAISGSGGSTYYADSVKGRFTISRDNSKNTLYLQMNSLRAEDTAVYYCARDLGFMDVWGQGTLVTVSS
VL: DIQMTQSPSSLSASVGDRVTITCRASQSISSYLNWYQQKPGKAPKLLIYDASYHEFGVPSRFSGSGSGTDFTLTISSLQPEDFATYYCQQSYSTPWTFGQGTKVEIK
notes: Tested as Fab fragment
On to B1, for which, in test [1], the equilibrium dissociation constant (Kd) (as a rule, the concentration at which binding is half-saturated) amounted to 0.6 nM; the koff (in general, a measure of how fast the partners let go of each other) came out at 0.00012 s⁻¹; the on-rate constant (kon) (commonly a measure of how fast the partners come together) was 200000 M⁻¹ s⁻¹. In test [2], this molecule gave a dissociation constant Kd of 0.9 nM, a koff of 0.00015 s⁻¹ and a kon of 160000 M⁻¹ s⁻¹.

B2: Dutaflip Fab fragment of P1AH1111 (DutaFab E06P07) (Fab, V domains shown)
VH: ARQLVESGGGLVQPGGSLRLSCAASGFHFEEQAMSWVRQAPGKGLEWVGSISPKGGSKSLNRNFNGRFTISRDNSKNTLYLQMNSLRAEDTAVYYCAKDIGFMDGWGQGTLVTVSS
VL: YQMTQSPSSLSASVGDRVTITCHGHVFISNYLAWYQQKPGKAPKLLIYDGEWRDFGVPSRFSGSGSDDSFTLTISSLQPEDFATYYCQQYSNWPHTFGQGTKVEIK
notes: Fab fragment without IFN-α2 fusion, expressed in E. coli
In turn, B2 had a dissociation constant (Kd) in test [3] of 37 nM.

B3: Dutaflip Fab fragment of P1AH1108 (Fab, V domains shown)
VH: MSQLVESGGGLVQPGGSLRLSCAANNDIEFNAMSWVRQAPGKGLEWVGSISPKGGSKSIHRKFQGRFTISRDNSKNTLYLQMNSLRAEDTAVYYCARDLGFMDIWGQGTLVTVSS
VL: KTQMTQSPSSLSASVGDRVTITCDGTYGISNELAWYQQKPGKAPKLLIYDGEYHDFDVPSRFSGSGSGSDFTLTISSLQPEDFATYYCQQYGNWPHTFGQGTKVEIK
notes: Dutaflip Fab fragment without IFN-α2 fusion, expressed in E. coli
With B3, in test [3], the Kd was determined as 6 nM.
